Assay results published in publication PMC10908866, “A structural and dynamic visualization of the interaction between MAP7 and microtubules” (Nature Communications, 2024).
Where no end group is shown, it is not given here.

B1: MAP7 microtubule-binding domain (MTBD), residues 59-170 (domain or fragment, human, UniProt Q14244 59-170, looked up)
chain: PVLRVDDRQRLARERREEREKQLAAREIVWLEREERARQHYEKHLEERKKRLEEQRQKEERRRAAVEEKRRQRLEEDKERHEAVVRRTMERSQKPKQKHNRWSWGGSLHGSP
notes: Uniformly [13C-15N] labelled in the NMR experiments; The deposited model PDB 8RC1 holds only a poly-alanine backbone of residues 63-151; also called MAP7 MTBD; MT-associated protein 7 MTBD; not shown: His-Tag, N-terminal, cleaved
B2: NHS-fluorescein-labelled α-tubulin C-terminal tail peptide (peptide)
peptide: SVEGEGEEEGEEY
modifications: also: NHS-fluorescein attached, position not given here
notes: C-terminal tail of HeLa S3 α-tubulin, residues Ser 439-Tyr 451; also called fluorescein labelled α-CTT; NHS-fluorescein-labelled α-CTT; source: synthetic peptide, bought: Sigma-Aldrich; labelled with NHS-fluorescein and dialysed

What was measured:
[1] = biological target: T1, microtubules polymerised from porcine brain α/β-tubulin (porcine, UniProt P02550 1-451; P02554 1-445); test: ITC; 150 µM MAP7 MTBD titrated in 2 µL steps to 164 µL of 15 µM Taxol-stabilized MT; 37 °C; NMR buffer (40 mM NaPi pH 6.5, 150 mM NaCl) with 1 mM β-ME and 1 mM GTP; duplicates; settings: both partners purified
T1 construct: α-tubulin of porcine brain tubulin; β-tubulin of porcine brain tubulin; Polymer of α/β-tubulin heterodimers (13 or 14 protofilaments in cryo-EM); Brain tubulin is a mixture of isotypes; For ITC and NMR samples the methods say only 'lyophilized tubulin (Cytoskeleton)' without species; also called MTs; MT; source: bought: Cytoskeleton (porcine brain tubulin, Cat No. T240; lyophilized tubulin), …

[2] = biological target: B1; test: fluorescence polarisation; fluorescence anisotropy; 1 µM NHS-fluorescein-labelled α-CTT, MAP7 MTBD 200 to 0 µM, 384-well plate; 40 mM NaPi pH 6.5, 150 mM NaCl, 1 mM DTT; fit with DynaFit; settings: both partners purified

T1 sequence (P02550 whole entry, chain 1 of 2): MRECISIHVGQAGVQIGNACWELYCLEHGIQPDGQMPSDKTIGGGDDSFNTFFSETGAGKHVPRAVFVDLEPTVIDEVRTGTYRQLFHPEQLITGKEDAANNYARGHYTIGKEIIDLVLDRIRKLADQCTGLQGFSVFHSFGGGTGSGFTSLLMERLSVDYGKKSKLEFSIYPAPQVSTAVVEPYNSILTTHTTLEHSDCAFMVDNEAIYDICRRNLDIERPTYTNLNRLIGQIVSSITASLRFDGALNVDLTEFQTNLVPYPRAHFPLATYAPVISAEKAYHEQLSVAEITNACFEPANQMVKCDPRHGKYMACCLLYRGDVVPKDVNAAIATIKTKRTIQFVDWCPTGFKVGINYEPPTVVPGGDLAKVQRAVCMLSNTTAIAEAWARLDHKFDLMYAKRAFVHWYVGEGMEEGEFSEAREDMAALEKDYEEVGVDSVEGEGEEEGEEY
T1 sequence (P02554 whole entry, chain 2 of 2): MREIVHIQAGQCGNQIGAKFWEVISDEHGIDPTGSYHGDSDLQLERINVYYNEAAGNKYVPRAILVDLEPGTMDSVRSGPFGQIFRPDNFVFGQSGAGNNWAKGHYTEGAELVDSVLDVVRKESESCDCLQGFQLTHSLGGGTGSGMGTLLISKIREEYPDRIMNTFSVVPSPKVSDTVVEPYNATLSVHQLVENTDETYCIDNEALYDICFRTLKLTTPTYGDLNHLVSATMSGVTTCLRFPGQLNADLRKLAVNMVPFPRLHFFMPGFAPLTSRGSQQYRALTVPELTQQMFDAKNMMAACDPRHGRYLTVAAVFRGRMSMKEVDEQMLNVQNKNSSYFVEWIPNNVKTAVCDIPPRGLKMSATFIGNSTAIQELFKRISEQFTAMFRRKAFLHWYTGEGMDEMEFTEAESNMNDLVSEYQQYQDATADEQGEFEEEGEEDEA

Row | Kd [1] [µM] | stoichiometry N [1] | Kd [2] [µM] | Binder
1 | 0.94 | 0.51 ± 0.09 |  | B1
2 |  |  | 91.3 | B2
